Laboratory results published in article PMC9352680, “A comprehensive thermodynamic model for RNA binding by the Saccharomyces cerevisiae Pumilio protein PUF4”.
Substitutions are numbered along the chain they refer to. In names and notes the source's numbering stands.

Target: T1, PUF4 RNA-binding domain (Saccharomyces cerevisiae, UniProt P25339 537-888)
T1 sequence: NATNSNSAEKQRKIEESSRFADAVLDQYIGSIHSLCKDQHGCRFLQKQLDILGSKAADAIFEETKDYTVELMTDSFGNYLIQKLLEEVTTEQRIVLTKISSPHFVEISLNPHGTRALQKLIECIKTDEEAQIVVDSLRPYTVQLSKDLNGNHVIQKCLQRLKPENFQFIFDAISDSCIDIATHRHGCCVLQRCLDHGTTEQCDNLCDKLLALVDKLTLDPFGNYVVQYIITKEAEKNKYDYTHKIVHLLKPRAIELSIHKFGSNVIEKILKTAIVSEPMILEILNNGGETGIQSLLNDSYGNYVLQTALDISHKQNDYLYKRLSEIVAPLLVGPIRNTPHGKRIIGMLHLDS
Assay: Mg; RNA-MaP; 20 mM Na-HEPES pH 7.4, 30 mM KOAc, 0.75 mM MgCl2, 0.1% Tween-20, 5% glycerol, 0.1 mg/mL BSA, 2 mM DTT; 25 C; 0.0125-409.6 nM protein
Details: tags: N-His6-TEV cleaved; C-SNAP kept, Cy3B-labelled; label: tethered on chip by stalled RNA polymerase

UCUCUUCUUCUCGUAUAUAUAUCUCUU (ssRNA) [Ie_S1_P3E.2_K3.1_C3.2_H3.1_[+1CTC]_A3.1_F3.1_T3.2] was tested, and the Kd was 449 nM.

UCUCUUCUCCCUUUGUAUAUAUAUCUCUU (ssRNA) [Ie_S1_P3E.2_K3.1_C3.2_[+-1CCCTT]_H3.1_A3.1_F3.1_T3.2] showed a Kd of 6.24 nM.

B1: Id_iii_S4_P5E.8_K5.4_C5.3_[C-2G]_H5.1_A5.2_F5.1_T5.2 (ssRNA)
RNA: UUUGACAACUGAUCGUUCUUUCUUGUUGUAAUAUUAUAUUCUUUCUCGAUCAGUUGUCUUU
With B1 the Kd was 11.1 nM.

B2: Id_iii_S4_P5E.8_K5.4_C5.3_H5.1_A5.2_F5.1_T5.2_[A12C] (ssRNA)
RNA: B1 RNA with G25C, A38C
B2 showed a Kd of 2.73 nM.

With UCUCUUCUCUCUUGUAUAUAUAUCUCUU (ssRNA) [Ie_S1_P3E.2_K3.1_C3.2_[+-2TCTC]_H3.1_A3.1_F3.1_T3.2] the Kd was 4.58 nM.

UCUCUUCUUCUGUAUAUAUAUCUCUU (ssRNA) [Ie_S1_P3E.2_K3.1_C3.2_H3.1_[+1CT]_A3.1_F3.1_T3.2] showed a Kd of 4.75 nM.

Binder UCUCUUUGUAAUUUUAUCUCUU (ssRNA) [Ib_S1_P5E.1_K5.1_C5.1_H5.1_A5.1_[T5A]_[A7T]_F5.1_T5.1] has a Kd of 5.31 nM.

UCUCUUUGUAAUCUUAUCUCUU (ssRNA) [Ib_S1_P5E.1_K5.1_C5.1_H5.1_A5.1_[T5A]_[A7C]_F5.1_T5.1] gave a Kd of 12.1 nM.

Work on UCUCUUCUCCUUGUAUAUAUAUCUCUU (ssRNA) [Ie_S1_P3E.2_K3.1_C3.2_[+-2TCC]_H3.1_A3.1_F3.1_T3.2] yielded a Kd of 4.39 nM.

In the case of UCUCUUCCUCUUGUAUAUAUAUCUCUU (ssRNA) [Ie_S1_P3E.2_K3.1_C3.2_[+-2CTC]_H3.1_A3.1_F3.1_T3.2], the Kd is reported as 7.17 nM.

In the case of UCUCUUCUCUUGUAUAUAUAUCUCUU (ssRNA) [Ie_S1_P3E.2_K3.1_C3.2_[+-2TC]_H3.1_A3.1_F3.1_T3.2], the Kd is reported as 4.74 nM.

In the case of UCUCUUCCUUUUGUAUAUAUAUCUCUU (ssRNA) [Ie_S1_P3E.2_K3.1_C3.2_[+-2CTT]_H3.1_A3.1_F3.1_T3.2], the Kd is reported as 5.14 nM.

UCUCUUCUUCCUUUGUAUAUAUAUCUCUU (ssRNA) [Ie_S1_P3E.2_K3.1_C3.2_[+-2TTCCT]_H3.1_A3.1_F3.1_T3.2] showed a Kd of 6.01 nM.

For UCUCUUCUUUCCGUAUAUAUAUCUCUU (ssRNA) [Ie_S1_P3E.2_K3.1_C3.2_H3.1_[+1TCC]_A3.1_F3.1_T3.2], the Kd was 534 nM.

In the case of UCUCUUCUUUUUGUAUAUAUAUCUCUU (ssRNA) [Ie_S1_P3E.2_K3.1_C3.2_H3.1_[+1TTT]_A3.1_F3.1_T3.2], the Kd is reported as 5.49 nM.

In the case of UCUCUUCCCUCUUGUAUAUAUAUCUCUU (ssRNA) [Ie_S1_P3E.2_K3.1_C3.2_[+-2CCTC]_H3.1_A3.1_F3.1_T3.2], the Kd is reported as 7.14 nM.

With UCUCUUCUCCCUUGUAUAUAUAUCUCUU (ssRNA) [Ie_S1_P3E.2_K3.1_C3.2_[+-1CCCT]_H3.1_A3.1_F3.1_T3.2] the Kd was 2.61 nM.

UCUCUUCUUCCCUGUAUAUAUAUCUCUU (ssRNA) [Ie_S1_P3E.2_K3.1_C3.2_H3.1_[+1CCCT]_A3.1_F3.1_T3.2] gave a Kd of 4.02 nM.

Work on UCUCUUUGUACUUUUAUCUCUU (ssRNA) [Ib_S1_P5E.1_K5.1_C5.1_H5.1_A5.1_[T5C]_[A7T]_F5.1_T5.1] yielded a Kd of 3.92 nM.

UCUCUUCUUCUCUGUAUAUAUAUCUCUU (ssRNA) [Ie_S1_P3E.2_K3.1_C3.2_H3.1_[+1CTCT]_A3.1_F3.1_T3.2] showed a Kd of 4.16 nM.

UCUCUUCCCCUUUUGUAUAUAUAUCUCUU (ssRNA) [Ie_S1_P3E.2_K3.1_C3.2_[+-2CCCTT]_H3.1_A3.1_F3.1_T3.2] showed a Kd of 5.86 nM.

Work on UCUCUUCUUCCUCUGUAUAUAUAUCUCUU (ssRNA) [Ie_S1_P3E.2_K3.1_C3.2_H3.1_[+1CCTCT]_A3.1_F3.1_T3.2] yielded a Kd of 5.08 nM.

Binder UCUCUUCUUCUCUCGUAUAUAUAUCUCUU (ssRNA) [Ie_S1_P3E.2_K3.1_C3.2_H3.1_[+1CTCTC]_A3.1_F3.1_T3.2] has a Kd of 512 nM.

UCUCUUCUCUCUCUGUAUAUAUAUCUCUU (ssRNA) [Ie_S1_P3E.2_K3.1_C3.2_[+-1CTCTC]_H3.1_A3.1_F3.1_T3.2] was tested, and the Kd was 3.89 nM.

UCUCUUCCCUUGUAUAUAUAUCUCUU (ssRNA) [Ie_S1_P3E.2_K3.1_C3.2_[+-2CC]_H3.1_A3.1_F3.1_T3.2] was tested, and the Kd was 7.06 nM.

With UCUCUUCUUCCUCGUAUAUAUAUCUCUU (ssRNA) [Ie_S1_P3E.2_K3.1_C3.2_H3.1_[+1CCTC]_A3.1_F3.1_T3.2] the Kd was 475 nM.

In the case of UCUCUUCUCUCUGUAUAUAUAUCUCUU (ssRNA) [Ie_S1_P3E.2_K3.1_C3.2_[+-1CTC]_H3.1_A3.1_F3.1_T3.2], the Kd is reported as 4.2 nM.

In the case of UCUCUUCUUCUUGUAUAUAUAUCUCUU (ssRNA) [Ie_S1_P3E.2_K3.1_C3.2_[+-1TCT]_H3.1_A3.1_F3.1_T3.2], the Kd is reported as 4.28 nM.

Binder UCUCUUCUCUCUUUGUAUAUAUAUCUCUU (ssRNA) [Ie_S1_P3E.2_K3.1_C3.2_[+-2TCTCT]_H3.1_A3.1_F3.1_T3.2] has a Kd of 4.28 nM.

UCUCUUCUUCCUUGUAUAUAUAUCUCUU (ssRNA) [Ie_S1_P3E.2_K3.1_C3.2_[+-2TTCC]_H3.1_A3.1_F3.1_T3.2] gave a Kd of 6.09 nM.

Work on UCUCUUCUUUUGUAUAUAUAUCUCUU (ssRNA) [Ie_S1_P3E.2_K3.1_C3.2_H3.1_[+1TT]_A3.1_F3.1_T3.2] yielded a Kd of 5.47 nM.

With UCUCUUUGUAAUGUUAUCUCUU (ssRNA) [Ib_S1_P5E.1_K5.1_C5.1_H5.1_A5.1_[T5A]_[A7G]_F5.1_T5.1] the Kd was 12.7 nM.

UCUCUUCUUCCGUAUAUAUAUCUCUU (ssRNA) [Ie_S1_P3E.2_K3.1_C3.2_H3.1_[+1CC]_A3.1_F3.1_T3.2] gave a Kd of 1270 nM.

Binder UCUCUUCUUUCUCGUAUAUAUAUCUCUU (ssRNA) [Ie_S1_P3E.2_K3.1_C3.2_H3.1_[+1TCTC]_A3.1_F3.1_T3.2] has a Kd of 261 nM.

UCUCUUCCCCUUUGUAUAUAUAUCUCUU (ssRNA) [Ie_S1_P3E.2_K3.1_C3.2_[+-2CCCT]_H3.1_A3.1_F3.1_T3.2] was tested, and the Kd was 3.73 nM.

Work on UCUCUUCUUUCUCUGUAUAUAUAUCUCUU (ssRNA) [Ie_S1_P3E.2_K3.1_C3.2_H3.1_[+1TCTCT]_A3.1_F3.1_T3.2] yielded a Kd of 4.87 nM.

UCUCUUCUUCUCUUGUAUAUAUAUCUCUU (ssRNA) [Ie_S1_P3E.2_K3.1_C3.2_[+-1TCTCT]_H3.1_A3.1_F3.1_T3.2] gave a Kd of 5.94 nM.

UCUCUUCUUCCUGUAUAUAUAUCUCUU (ssRNA) [Ie_S1_P3E.2_K3.1_C3.2_H3.1_[+1CCT]_A3.1_F3.1_T3.2] showed a Kd of 5.41 nM.

With UCUCUUCUUUCCUUGUAUAUAUAUCUCUU (ssRNA) [Ie_S1_P3E.2_K3.1_C3.2_[+-1TTCCT]_H3.1_A3.1_F3.1_T3.2] the Kd was 4.2 nM.

In the case of UCUCUUCUUGUUAUAUAUAUCUCUU (ssRNA) [Ie_S1_P3E.2_K3.1_C3.2_H3.1_[+2T]_A3.1_F3.1_T3.2], the Kd is reported as 29.7 nM.

Binder UCUCUUCUCCUGUAUAUAUAUCUCUU (ssRNA) [Ie_S1_P3E.2_K3.1_C3.2_[+-1CC]_H3.1_A3.1_F3.1_T3.2] has a Kd of 4.99 nM.

Binder UCUCUUCUUUUCCUGUAUAUAUAUCUCUU (ssRNA) [Ie_S1_P3E.2_K3.1_C3.2_H3.1_[+1TTCCT]_A3.1_F3.1_T3.2] has a Kd of 5.37 nM.

Work on UCUCUUCCUCUCUUGUAUAUAUAUCUCUU (ssRNA) [Ie_S1_P3E.2_K3.1_C3.2_[+-2CTCTC]_H3.1_A3.1_F3.1_T3.2] yielded a Kd of 7.46 nM.

UCUCUUCUUUCUGUAUAUAUAUCUCUU (ssRNA) [Ie_S1_P3E.2_K3.1_C3.2_H3.1_[+1TCT]_A3.1_F3.1_T3.2] gave a Kd of 3.95 nM.

Work on UCUCUUCUUUGUAUAUAUAUCUCUU (ssRNA) [Ie_S1_P3E.2_K3.1_C3.2_[+-2T]_H3.1_A3.1_F3.1_T3.2] yielded a Kd of 4.55 nM.

UCUCUUCCUCUUUGUAUAUAUAUCUCUU (ssRNA) [Ie_S1_P3E.2_K3.1_C3.2_[+-2CTCT]_H3.1_A3.1_F3.1_T3.2] gave a Kd of 4.97 nM.

Binder UCUCUUCUCCUCUUGUAUAUAUAUCUCUU (ssRNA) [Ie_S1_P3E.2_K3.1_C3.2_[+-1CCTCT]_H3.1_A3.1_F3.1_T3.2] has a Kd of 3.91 nM.
